# According to patent publication US20130167269A1:
# Legend:
# [1] = molecular target: Brush border membrane vesicle (BBMV) preparation from midguts of third instars of the western corn rootworm (Diabrotica virgifera virgifera LeConte) (Diabrotica virgifera virgifera); test: Homologous competition: unlabeled Cry35Ab1 (0-5,000 nM) against 5 nM 125I-Cry35Ab1 on BBMV (0.1 mg/ml); remaining about 50% considered nonspecific
# [2] = molecular target: Brush border membrane vesicle (BBMV) preparation from midguts of third instars of the western corn rootworm (Diabrotica virgifera virgifera LeConte) (Diabrotica virgifera virgifera)
Binder,percent of bound 125I-Cry35Ab1 displaced at approximately 100 nM unlabeled Cry35Ab1 [1] [%],Kd [2] [nM],binding site concentration Bmax (pmole/ug BBMV) [2]
"Chymotrypsin-truncated Cry35Ab1 core protein (protein, 125I-iodinated (Pierce Iodination Beads, Na125I) when used as the labeled ligand; positions not given; unlabeled when used as competitor) MLDTNKVYEISNHANGLYAATYLSLDDSGVSLMNKNDDDIDDYNLKWFLFPIDDDQYIITSYAANNCKVWNVNNDKINVSTYSSTNSIQKWQIKANGSSYVIQSDNGKVLTAGTGQALGLIRLTDESSNNPNQQWNLTSVQTIQLPQKPIIDTKLKDYPKYSPTGNIDNGTSPQLMGWTLVPCIMVNDPNIDKNTQIKTTPYYILKKYQYWQRAVGSNVALRPHEKKSYTYEWGTEIDQKTTIINTLGFQINIDSGMKFDIPEVGGGTDEIKTQLNEELKIEYSHETKIMEKYQEQSEIDNPTDQSMNSIGFLTITSLELYRYNGSEIRIMQIQTSDNDTYNVTSYPNHQQALL",> 50,11.7,5.19
"Full-length Cry6Aa1 protein (protein, 125I-iodinated (Pierce Iodination Beads, Na125I) in the saturation assay; positions not given; unlabeled when used as competitor) MIIDSKTTLPRHSLIHTIKLNSNKKYGPGDMTNGNQFIISKQEWATIGAYIQTGLGLPVNEQQLRTHVNLSQDISIPSDFSQLYDVYCSDKTSAEWWNKNLYPLIIKSANDIASYGFKVAGDPSIKKDGYFKKLQDELDNIVDNNSDDDAIAKAIKDFKARCGILIKEAKQYEEAAKNIVTSLDQFLHGDQKKLEGVINIQKRLKEVQTALNQAHGESSPAHKELLEKVKNLKTTLERTIKAEQDLEKKVEYSFLLGPLLGFVVYEILENTAVQHIKNQIDEIKKQLDSAQHDLDRDVKIIGMLNSINTDIDNLYSQGQEAIKVFQKLQGIWATIGAQIENLRTTSLQEVQDSDDADEIQIELEDASDAWLVVAQEARDFTLNAYSTNSRQNLPINVISDSCNCSTTNMTSNQYSNPTTNMTSNQYMISHEYTSLPNNFMLSRNSNLEYKCPENNFMIYWYNNSDWYNNSDWYNN",,7.99,2.71
